Results published in patent publication US6642368B1, “Programmed cell death and caspase-12” (The General Hospital Corporation, priority 1998, dated 2003).

Columns and labels:
[1] = test system: pro-IL-1β and poly(ADP-ribose) polymerase; experiment: Cleavage of preferred ICE and caspase-3 substrates by purified caspase-12Δ2; format: biochemical
Protocol: (§1) ICE, casp-2 and casp-3 were cloned into a pET-15b vector (Novagen) and their expression was induced in the presence of 0.2-0.3 mM IPTG (Wang, S., et a., J. Biol. Chem. 271:20580-20587 (1996); Cryns, V. L., et al., J. Biol. Chem. 271:31277-31282 (1996)). Bacterial lysates containing the ICE-like proteases were prepared as described (Wang, S., et al., J. Biol. Chem. 271:20580-20587 (1996); Cryns, V. L., et al., J. Biol. Chem. 271:31277-31282 (1996)). [^35S]-labeled proteins were prepared by in vitro transcription and translation using a TNT coupled reticulocyte lysate system (Promega) and [^35S]methionine (Amersham). Labeled proteins were incubated at 37° C. with purified caspase-12Δ2 or at 30° C. with E. coli lysates containing the caspase family members. The reaction mixture contained 25 mM Hepes (pH 7.5) with 5 mM EDTA, 5 mM dithiothreitol, 10% sucrose, 10 μg/ml leupeptin and 250 μM phenylmethylsulfonyl fluoride. Amount of proteins used for cleavage reaction were: 0.1 μg for partially purified caspase-12Δ2, 25-70 μg for E. coli lysate. […] Cleavage products were analyzed by either 10- or 15% SDS-polyacrylamide gel electrophoresis. […]

pro-caspase-12 = experiment: In vitro cleavage of [35S]-labeled protein by partially purified caspase-12Δ2; format: biochemical, mouse; conditions: 1 hr at 37° C., 0.1 μg enzyme
Description: (§2) FIGS. 8A-8C Protease activity of caspase-12Δ2. […] Proteins were run on 15% gel and detected by Coomassie brilliant blue staining. Arrowheads indicate polypeptides derived from caspase-12 proteins. FIG. 8B is a diagram of processing sites on caspase-12Δ and caspase-12Δ2. […] Reaction was stopped by boiling with the addition of sample buffer for SDS-polyacrylamide gel electrophoresis. The molecular sizes in kilodaltons are indicated at the left.
as §1, with “members.” for “members. The reaction mixture contained 25 mM Hepes (pH 7.5) with 5 mM EDTA, 5 mM dithiothreitol, 10% sucrose, 10 μg/ml leupeptin and 250 μM phenylmethylsulfonyl fluoride. Amount of proteins used for cleavage reaction were: 0.1 μg for partially purified caspase-12Δ2, 25-70 μg for E. coli lysate.”

[2] = test system: pro-ICE, pro-caspase-2 and pro-caspase-3; experiment: In vitro cleavage of [35S]-labeled proteins by partially purified caspase-12Δ2; format: biochemical; conditions: 1 hr or 3 hr incubation
Description: as §2
as §1, with “members.” for “members. The reaction mixture contained 25 mM Hepes (pH 7.5) with 5 mM EDTA, 5 mM dithiothreitol, 10% sucrose, 10 μg/ml leupeptin and 250 μM phenylmethylsulfonyl fluoride. Amount of proteins used for cleavage reaction were: 0.1 μg for partially purified caspase-12Δ2, 25-70 μg for E. coli lysate.”

HeLa = experiment: Cell type specificity of cell killing, lacZ fusion transfection; format: cell-based; conditions: FIG. 6
Protocol: (§3) FIG. 6. The cell type specificity of caspase-12-induced cell killing activity. NG108-15, HeLa and COS-1 cells were transfected with casp-12L-lacZ, casp-12S-LacZ, lacZ or ICE-lacZ. Staining of transfectants were done and the data are presented as in FIG. 4C.
(§4) Rat-1, rat embryonic fibroblast cells, NG108-15, HeLa and COS-1 were maintained in culture at 37° C. with 5% CO2 in Dulbecco's modified Eagle's medium containing 10% (v/v) fetal bovine serum (BioWhittaker) and 50 units/ml penicillin and 50 μg/ml streptomycin (Sigma). The day before transfection, cells were seeded at a density of 1.3×10^4 cells/cm^2. Expression constructs were transferred to cells with either calcium phosphate or lipofectamine (GIBCO BRL) as previously described (Miura, M., et al., Cell 75:653-660 (1993); Kumar, S., et al., Genes and Development 8:1613-1626 (1994); Wang, L., et al., Cell 78:739-750 (1994)). The expression of chimeric genes in cells was detected by staining of cells with 5-bromo-4-chloro-3-indolyl β-D-galactoside (X-gal) as previously described (Miura, M., et al., Cell 75:653-660 (1993); Kumar, S., et al., Genes and Development 8:1613-1626 (1994); Wang, L., et al., Cell 78:739-750 (1994)). […]

NG108-15 = experiment: as above; format: cell-based; conditions: NG108-15, FIG. 6
Protocol: as §3, §4

COS-1 cells = experiment: as above; format: cell-based, monkey; conditions: COS-1, FIG. 6
Protocol: as §3, §4

[3] = Protease activity of full-length recombinant caspase-12 from E. coli; format: biochemical; conditions: expressed and purified from E. coli
Rat-1 cells = experiment: Cell death induced by transient overexpression of lacZ fusion constructs, X-gal staining; format: cell-based; conditions: lacZ fusion construct, 24 hr after transfection
Description: (§5) FIGS. 4A-4C. Cell death induced by overexpression of caspase-12. […] The round cells expressing the casp-12L-lacZ fusion proteins show condensed and fragmented nuclei. […] The data shown are the percentage of round blue cells among total number of blue cells counted. In each transfection, over 200 blue cells were randomly chosen and counted. The data of Rat-1 cells collected from at least three independent experiments. The constructs used were: casp-12L-lacZ, casp-12S-lacZ, casp-12Δ-lacZ, ICE-lacZ, lacZ. Rat embryonic fibroblast cells (REF) were also transfected with either casp-12L-lacZ or lacZ.
To examine if expression of caspase-12 induces apoptosis, a transient expression system was used to overexpress caspase-12 in mammalian cells. […] Transfected cells are easily detected by staining with X-gal because of the β-galactosidase activity of lacZ. Expression constructs of casp-12L and casp-12S fused with lacZ gene in pcDNA3 vector, which contains the cytomegalovirus (CMV) promoter, were generated. These expression constructs were introduced into Rat-1 cells by transfection, and the expression of the genes were examined 24 hr after transfection using X-gal reaction.
Rat-1, rat embryonic fibroblast cells, NG108-15, HeLa and COS-1 were maintained in culture at 37° C. with 5% CO2 in Dulbecco's modified Eagle's medium containing 10% (v/v) fetal bovine serum (BioWhittaker) and 50 units/ml penicillin and 50 μg/ml streptomycin (Sigma). The day before transfection, cells were seeded at a density of 1.3×10^4 cells/cm^2. Expression constructs were transferred to cells with either calcium phosphate or lipofectamine (GIBCO BRL) as previously described (Miura, M., et al., Cell 75:653-660 (1993); Kumar, S., et al., Genes and Development 8:1613-1626 (1994); Wang, L., et al., Cell 78:739-750 (1994)). The expression of chimeric genes in cells was detected by staining of cells with 5-bromo-4-chloro-3-indolyl β-D-galactoside (X-gal) as previously described (Miura, M., et al., Cell 75:653-660 (1993); Kumar, S., et al., Genes and Development 8:1613-1626 (1994); Wang, L., et al., Cell 78:739-750 (1994)). Immunostaining of transfected cells was done as previously described using mouse monoclonal anti-lacZ antibody (Miura, M., et al., Cell 75:653-660 (1993); Kumar, S., et al., Genes and Development 8:1613-1626 (1994); Wang, L., et al., Cell 78:739-750 (1994)).

Rat-1/bcl-2 = experiment: Effect of cell death suppressor bcl-2 on caspase-12 killing activity; format: cell-based; conditions: casp-12L-lacZ in Rat-1/bcl-2 stable transfectant
Protocol: FIGS. 5A-5B. Effect of cell death suppressors on the killing activity of caspase-12. […] Cell death was assayed as described in FIG. 4C. […] The data from transfection of the parental cell line, Rat-1 (FIG. 4C), are included in the figures for comparison. The lacZ construct was also used for transfection as a control.
To determine if expression of bcl-2 and crmA can inhibit apoptosis induced by casp-12 overexpression, casp-12L-lacZ fusion construct was transfected into stable cell lines of Rat-1 that overexpresses either bcl-2 or crmA (Miura, M., et al., Cell 75:653-660 (1993)). Cell death was assayed as described above (Example 3). […] The magnitude of the bcl-2 suppression against toxicity of casp-12 overexpression was about 10% (60% for Rat-1, 50% for Rat-1/bcl-2) which is much smaller than that observed for ICE and casp-2 (FIG. 5A; Wang, L., et al., Cell 78:739-750 (1994)).

[4] = test system: rat embryonic fibroblast cells; experiment: Cell death induced by transient overexpression of lacZ fusion constructs, X-gal staining; format: cell-based; conditions: primary rat embryonic fibroblasts, FIG. 4C
Description: as §5
as §4, with “Expression constructs were transferred to cells with either calcium phosphate or lipofectamine (GIBCO BRL) as previously described (Miura, M., et al., Cell 75:653-660 (1993); Kumar, S., et al., Genes and Development 8:1613-1626 (1994); Wang, L., et al., Cell 78:739-750 (1994)).” left out

Row | Molecule | cleavage of pro-IL-1β and poly(ADP-ribose) polymerase [1] | processing of pro-caspase-12 (48 kDa) into fragments (pro-caspase-12) | cleavage of pro-ICE, pro-caspase-2 and pro-caspase-3 [2] | apoptosis induced by casp-12L expression (HeLa) | apoptosis induced by casp-12L expression (NG108-15) | apoptosis induced by casp-12L expression (COS-1 cells) | processing and protease activity in vitro [3] | percentage of cell death (round blue cells among total blue cells) (Rat-1 cells) | percentage of cell death (round blue cells among total blue cells) (Rat-1 cells; listed as casp-12L-lacZ) | percentage of cell death (Rat-1/bcl-2) | transfected cells round and small [4]
1 | caspase-12Δ2: truncated His-tagged caspase-12, amino acid residues 145-419 of SEQ ID NO:2 (protein, His tag) TLKLCPRDQFCKIKTERAKEIYPVMEKEGRTRLALIICNKKFDYLFDRDNADTDILNMQELLENLGYSVVLKENLTAQEMETELMQFAGRPEHQSSDSTFLVFMSHGILEGICGVKHRNKKPDVLHDDTIFKIFNNSNCRSLRNKPKILIMQACRGRYNGTIWVSTNKGIATADTDEERVLSCKWNNSITKAHVETDFIAFKSSTPHNISWKVGKTGSLFISKLIDCFKKYCWCYHLEEIFRKVQHSFEVPGELTQMPTIERVSMTRYFYLFPGN | little activity | can efficiently process | only faint bands of cleavage products | – | – | – | – | – | – | – | –
2 | caspase-12L: long form of mouse caspase-12, 419 amino acid residues (SEQ ID NO:2); expressed as lacZ fusion (protein, lacZ fusion) MAARRTHERDPIYKIKGLAKDMLDGVFDDLVEKNVLNGDELLKIGESASFILNKAENLVENFLEKTDMAGKIFAGHIANSQEQLSLQFSNDEDDGPQKICTPSSPSESKRKVEDDEMEVNAGLAHESHLMLTAPHGLQSSEVQDTLKLCPRDQFCKIKTERAKEIYPVMEKEGRTRLALIICNKKFDYLFDRDNADTDILNMQELLENLGYSVVLKENLTAQEMETELMQFAGRPEHQSSDSTFLVFMSHGILEGICGVKHRNKKPDVLHDDTIFKIFNNSNCRSLRNKPKILIMQACRGRYNGTIWVSTNKGIATADTDEERVLSCKWNNSITKAHVETDFIAFKSSTPHNISWKVGKTGSLFISKLIDCFKKYCWCYHLEEIFRKVQHSFEVPGELTQMPTIERVSMTRYFYLFPGN | – | – | – | resistant to apoptosis | resistant to apoptosis | resistant to apoptosis | without any processing and protease activity | about 60% | 60% | 50% | about 60%
